Results taken from patent US20190345485A1.

Molecular target: MCR2(OVA)
Experiment: cell-based or functional assay

Substance: OT-II TCR
- NFAT-activation triggered by a T-cell population holding 1% peptide-specific CD4+ T-cells (% of the maximal NFAT-activation): 50
